Reference: US20060287508A1 (Chugai, published 2006)
Where a chain is given by its changes, count along the chain named. Names and notes keep the numbering of the source.

Legend:
hTF (Thromborel S) [1] = target: T1, hTF (Thromborel S) (human, UniProt P13726 33-295); test: cell-based or functional assay
shTF [2] = target: T2, shTF (human, UniProt P13726 33-251, limits assumed); test: TF binding activity after 4 weeks at 40 C, pH 7.5, against own initial value (FIG. 13B)
T2 construct: also called human tissue factor

shTF [3] = target: T2, shTF; test: competitive ELISA on coated shTF against biotinylated anti-human TF antibody; anion exchange subpeak
Description: (§1) shTF was adjusted to 20 nM with coating buffer (hereafter, indicated as CB), dispensed at 100 μl/well into a 96-well plate and incubated at 4° C. overnight. Each well was washed three times with rinse buffer (hereafter, indicated as RB); 200 μl dilution buffer (hereafter, indicated as DB) was added to each well. The plate was left standing at room temperature for 2 hours for blocking. […] The plate was washed three times with RB. After 100 μl ALP-streptavidin diluted 5,000-fold with DB was dispensed to each well, the plate was left standing for 1 hour at room temperature. Each well was washed 5 times with RB, and SIGMA104 adjusted with substrate buffer (hereafter, indicated as SB) to 1 mg/ml was dispensed to each well. Plates were left standing for 30 min at room temperature for color development and measured with a microplate reader at a wavelength of 405 nm and a control wavelength of 655 nm.
This was taken as the binding activity.

hTF (Thromborel S) [4] = target: T1, hTF (Thromborel S); test: cell-based or functional assay; remark: listed apart in the source
shTF [5] = target: T2, shTF; test: competitive ELISA on coated shTF against biotinylated anti-human TF antibody; anion exchange main peak
Description: as §1
This was taken as the binding activity.

T1 sequence (P13726 33-295 limits assumed): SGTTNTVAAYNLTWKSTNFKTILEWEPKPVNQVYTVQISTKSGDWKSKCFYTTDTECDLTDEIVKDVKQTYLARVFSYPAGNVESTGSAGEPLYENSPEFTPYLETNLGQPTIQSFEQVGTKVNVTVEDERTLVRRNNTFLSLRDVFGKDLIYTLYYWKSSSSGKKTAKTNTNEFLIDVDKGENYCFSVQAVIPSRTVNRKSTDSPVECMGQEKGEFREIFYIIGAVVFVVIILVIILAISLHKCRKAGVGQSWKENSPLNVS
T2 sequence (P13726 33-251 limits assumed): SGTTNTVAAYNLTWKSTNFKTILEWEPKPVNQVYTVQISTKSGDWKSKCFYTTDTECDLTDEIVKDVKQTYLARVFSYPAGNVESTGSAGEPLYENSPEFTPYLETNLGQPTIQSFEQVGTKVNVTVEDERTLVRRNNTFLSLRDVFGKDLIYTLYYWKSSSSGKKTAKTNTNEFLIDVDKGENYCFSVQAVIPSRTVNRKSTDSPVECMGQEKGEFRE

B1: anti-human TF antibody N28D mutant (antibody, human IgG4 S228P, kappa, V domains shown)
VH: QVQLLESGAVLARPGTSVKISCKASGFDIKDYYMHWVKQRPGQGLEWIGGNDPANGHSMYDPKFQGRVTITADTSTSTVFMELSSLRSEDTAVYYCARDSGYAMDYWGQGTLVTVSS
VL: DIQMTQSPSSLSASVGDRVTITCKASQDIKSFLSWYQQKPEKAPKSLIYYATSLADGVPSRFSGSGSGTDYTLTISSLQPEDFATYYCLQHGESPYTFGGGTKVEIKR
hTF (Thromborel S) [1]
  Calculated concentration (ng/ml) at 250 ng/ml added: 253 ng/mL

B2: anti-human TF antibody described in WO 99/51743 (humanized heavy chain version i, humanized light chain version b2) (antibody, human IgG4 S228P, kappa, V domains shown)
VH: B1 VH with D28N
VL: B1 VL
notes: Expressed as human IgG from vector pN5KG4P-AHi-ALb2; also called original anti-human TF antibody; Original
shTF [2]
  TF binding activity after 4 weeks of accelerated testing (% of its activity before): ~60%
shTF [3]
  Binding Activity, Peak 2 (% of standard antibody): 70.6%
hTF (Thromborel S) [4]
  TF neutralizing activity (Equation 2, relative to standard antibody): 66%
  TF neutralizing activity after accelerated testing at 40 C for 4 weeks, relative to the initial value: ~40%
shTF [5]
  Binding Activity, Peak 1 (% of standard antibody): 100%
hTF (Thromborel S) [1]
  Calculated concentration (ng/ml) at 250 ng/ml added: 248 ng/mL
  Neutralizing activity ratio (%): 99.1%

B3: anti-human TF antibody N55D mutant (antibody, human IgG4 S228P, kappa, V domains shown)
VH: B1 VH with D28N, N55D
VL: B1 VL
hTF (Thromborel S) [1]
  Calculated concentration (ng/ml) at 250 ng/ml added: 49.8 ng/mL

B4: anti-human TF antibody N51D mutant (antibody, human IgG4 S228P, kappa, V domains shown)
VH: B1 VH with D28N, N51D
VL: B1 VL
hTF (Thromborel S) [1]
  Calculated concentration (ng/ml) at 250 ng/ml added: 164 ng/mL

B5: anti-human TF antibody N51D/N55D double mutant (antibody, human IgG4 S228P, kappa, V domains shown)
VH: B1 VH with D28N, N51D, N55D
VL: B1 VL
hTF (Thromborel S) [1]
  Calculated concentration (ng/ml) at 250 ng/ml added: 31.3 ng/mL
